In the experiment the target is GST-LOV2GIV (L) (Avena sativa | not stated). Kind of experiment: pull-down.

His-Gαi3, sequence (P08753 whole entry): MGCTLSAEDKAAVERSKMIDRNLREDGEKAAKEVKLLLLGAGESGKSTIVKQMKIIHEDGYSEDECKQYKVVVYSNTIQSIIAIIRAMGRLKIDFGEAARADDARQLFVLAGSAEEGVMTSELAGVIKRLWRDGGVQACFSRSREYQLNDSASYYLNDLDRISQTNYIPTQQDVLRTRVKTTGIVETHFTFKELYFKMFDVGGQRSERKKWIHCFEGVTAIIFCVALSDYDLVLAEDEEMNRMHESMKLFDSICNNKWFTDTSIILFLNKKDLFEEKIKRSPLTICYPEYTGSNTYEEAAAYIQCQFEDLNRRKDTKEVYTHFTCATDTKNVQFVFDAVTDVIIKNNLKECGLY

“His-Gαi3 (from UniProt P08753 1-354) (natural protein)” yielded a fold binding, lit over dark conformation of LOV2GIV of 3 fold.

For the origin of these results see publication doi:10.1101/2020.08.17.253781.
